Source: patent publication US20200369772A1 (ABBA THERAPEUTICS, published 2020)
Numbering of substitutions follows the chain as printed. Names may count otherwise.

T1: human PD-L2 (full-length, on cells) (human, UniProt Q9BQ51 20-273)
T1 construct: whole, on cells; CHO-K1 cells stably expressing full-length human PD-L2; also endogenous on NCI-H226 and transfected in Jurkat cells; also called hPD-L2; CHO-K1/hPD-L2
T1 sequence (looked up): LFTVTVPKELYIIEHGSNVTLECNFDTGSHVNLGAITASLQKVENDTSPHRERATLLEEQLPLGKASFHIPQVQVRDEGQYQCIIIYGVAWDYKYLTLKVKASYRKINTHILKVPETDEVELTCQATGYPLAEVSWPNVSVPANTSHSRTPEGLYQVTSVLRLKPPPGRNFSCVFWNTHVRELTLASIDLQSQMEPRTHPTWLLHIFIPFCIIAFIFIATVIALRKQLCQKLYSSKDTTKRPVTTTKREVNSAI

T2: human PD-L2 (full-length, on cells) (human, UniProt Q9BQ51 20-273)
T2 chain: T1 sequence (looked up)

T3: recombinant human PD-L2-Fc-biotin (human, UniProt Q9BQ51 20-220, biotin)
T3 chain: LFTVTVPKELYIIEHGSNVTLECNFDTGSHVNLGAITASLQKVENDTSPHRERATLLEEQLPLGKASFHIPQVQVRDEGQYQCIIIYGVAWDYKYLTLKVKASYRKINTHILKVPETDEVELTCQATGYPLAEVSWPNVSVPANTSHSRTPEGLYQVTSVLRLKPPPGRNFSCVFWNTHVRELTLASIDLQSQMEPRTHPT

T4: mouse PD-L2 (full-length, on cells) (mouse, UniProt Q9WUL5 20-247)
T4 construct: whole, on cells; HEK293 cells stably expressing full-length mouse PD-L2
T4 sequence (looked up): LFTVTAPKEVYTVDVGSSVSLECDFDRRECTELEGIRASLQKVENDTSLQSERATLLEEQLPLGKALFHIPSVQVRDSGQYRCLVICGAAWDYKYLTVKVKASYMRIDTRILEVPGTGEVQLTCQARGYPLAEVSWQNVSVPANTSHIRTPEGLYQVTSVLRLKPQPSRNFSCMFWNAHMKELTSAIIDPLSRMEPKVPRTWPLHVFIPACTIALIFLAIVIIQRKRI

B1: 7H5-C5 (antibody, V domains shown)
VH: QVQLVESGGGLVKPGGSLRLSCAASGFSLSDYYMSWTRQAPGRGLEWVSFISSSGSTIYYVDSVKGRFTISRDHAKNSLYLQINSLRAEDTAVYYCARAQWLPDFDYWGQGTLVTVSS
VL: QSALTQPPSASGSPGQSVTISCTGTSSDVSGYNYVSWYQHHPDKAPKLLIYEVNKRPSGVPARFSGSKSGNTASLTVSGLQAEDEADYYCTSFADNNNVVFGGGTKLTVLG
notes: Both formats under this entry
B2: 9A3-C7 (antibody, V domains shown)
VH: B1 VH with T37I, F50Y, H74N, Y95H
VL: B1 VL with S30G, D43G, A45V, L49M, N54S, A62D, V100G
notes: Both formats under this entry
B3: 10A9-D2 (antibody, V domains shown)
VH: QVQLQESGPGLVKPSETLSLTCAVSGGSISSSYWWSWVRQPPGKGLEWVGEVFHVGVTNYNPSLKSRVTISVDKSKNQFSLKLTSVTAADTAVYYCARVTGTTGYYHGLDVWGQGTTVTVFS
VL: DIQMTQSPSSLSASVGDRVTITCRASQGIRNDLGWYQQKPGKVPKRLIYAASSLQSGIPSRFSGSGSGTEFTLTISSLQPEDFATYYCLQHNNYPRTFGQGTKVEIK
notes: Both formats under this entry
B4: 19B3-B3 (antibody, V domains shown)
VH: QVQLVQSGAEVKKPGASVKVSCMASGYTFTNYAIHWVRQAPGQRLEWMGWINTGLGKPKYSQMFQDRVTITRDTSASTASMELSGLRSDDTAVYYCARVGWELYFDYWGQGTLVTVSS
VL: DIQMTQSPSTLSASVGDRVTITCRASQSISSLLAWYQQKPGKAPKLLIYKASSLESGVPSRFSGSGSGTEFTLTISSLQPDDFATYFCQQYNSYWTFGQGTKVEIK
notes: Both formats under this entry
B5: 12A1-D4 (antibody, V domains shown)
VH: QVQLQESGPGLVKPSGTLSLTCAVSGGSISSNNWWSWVRQPPGKGLEWIGEIFHVGSTNYNPSLKSRVTISVDKSKNQFSLKLSSLTAADTAVYYCARMVGATGHYYGMDVWGQGTTVTVSS
VL: DIQLTQSPSFLSASVGDRVTITCRASQGISSSLAWYQQKPGKAPKFLIYAASTLQSGVPSRFSGSGSGTEFTLTISSLQPEDFATYYCQQLNSYPKSWTFGQGTKVEIK
notes: Both formats under this entry
B6: 10D1-G1 (antibody, V domains shown)
VH: QVQLQESGPGLVKPSGTLSLTCAVSGGSISSSYWWSWVRQPPGKGLEWIGEIFHIGSTNYNPSLRSRVTISVVKSKNQFSLNLNSVTAADTAVYFCARVSGGYGYFSGMDVWGQGTTVTVSS
VL: B3 VL with V43A, A50G, I58V, N93S
notes: Both formats under this entry
B7: 2-19H2 (antibody, V domains shown)
VH: B4 VH with M23K, M63L
VL: B4 VL with S28T, L32W, K45N, F87Y, N92Y
notes: VH of 19B3-B3 M23K.M63L.HC with VL of 2C4-E4; kappa; also called 2-H192

Target: T1, human PD-L2 (full-length, on cells)
Test: hybridoma supernatant screen on cells expressing human PD-L2

| Binder | binding result |
| --- | --- |
| B1 | binds |
| B2 | binds |
| B3 | binds |
| B4 | binds |
| B5 | binds |

Target: T1, human PD-L2 (full-length, on cells)
Test: FACS binding on cells expressing human PD-L2 (per the examples)

| Binder | binding result |
| --- | --- |
| B6 | binds |
| B7 | binds |

Target: T2, human PD-L2 (full-length, on cells)
Test: FACS binding to CHO-K1 cells expressing human PD-L2
How it was run: (§1)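 Flow cytometry on a BD FACSCalibur was used to measure binding to CHO-K1 cells stably expressing full-length human PD-L2. Staining took 20 min at 4° C with APC-labelled anti-rat IgG or anti-human IgG Fc, chosen to match the antibody format. GraphPad Prism was used for non-linear curve fitting of percentage of maximal binding against concentration to obtain the binding EC50.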

| Binder | EC50 [nM] |
| --- | --- |
| B6 | 0.37 |
| B3 | 0.32 |
| B4 | 0.37 |

Target: T2, human PD-L2 (full-length, on cells)
Test: as above
Remark: another data set of the same source
How it was run: as §1

| Binder | EC50 [nM] |
| --- | --- |
| B6 | 0.38 |
| B1 | 1.6 |
| B3 | 0.38 |
| B4 | 0.34 |
| B5 | 0.42 |

Target: T2, human PD-L2 (full-length, on cells)
Test: FACS, NCI-H226 cells
How it was run: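 NCI-H226 human lung squamous carcinoma cells (1.5×10⁵) were stained with APC-labelled goat anti-rat IgG (1:2000) for 20 min at 4° C. Binding to endogenous PD-L2 on these cells was then read by flow cytometry on a BD FACSCalibur. GraphPad Prism non-linear fitting of percentage of maximal binding versus concentration gave the binding EC50.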

| Binder | EC50 [nM] |
| --- | --- |
| B6 | 0.146 |
| B1 | 0.517 |
| B2 | 0.644 |
| B3 | 0.0776 |
| B4 | 0.177 |
| B5 | 0.0989 |

Target: T3, recombinant human PD-L2-Fc-biotin
Test: blocking of hPD-L2 binding to HEK293-hPD-1 cells
How it was run: (§2)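 The IC50 was calculated by non-linear curve fitting in GraphPad Prism from a flow cytometry assay of ligand binding to HEK293 cells stably expressing human PD-1. For this, antibody in serial dilution (0.03 ng/ml-0.5 μg/ml) was first held with recombinant human PD-L2-Fc-biotin (5 ng/ml, 100 pM) in 100 μl for 60 min at 4° C, then added to 1.5×10⁵ cells for 30 min at 4° C. Binding was read with fluorochrome-conjugated streptavidin (20 min, 4° C), with control wells defining 0% and 100% binding.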

| Binder | IC50 [nM] |
| --- | --- |
| B6 | 0.014 |
| B1 | 0.026 |
| B2 | 0.029 |
| B3 | 0.012 |
| B4 | 0.017 |
| B5 | 0.013 |

Target: T4, mouse PD-L2 (full-length, on cells)
Test: FACS on HEK293 cells stably expressing full-length mouse PD-L2
Experimental: (§3) The ability of anti-PD-L2 antibodies binding to mouse PD-L2, human PD-L1 or cyno PD-L2 was determined by FACS. HEK293 cells stably expressing full-length monkey PD-L2, mouse PD-L2 or human PD-L1 were established, subcloned and verified. For binding assay, 1.5×10⁵ cells in 100 μl of FACSwash buffer were incubated with individual anti-PD-L2 antibodies (0.5 μg/ml) for 30 min. After three times of washing, the cells were re-suspended in FACSwash buffer containing FITC-labelled goat-anti-rat IgG (Thermo Fisher, 1:1000) or APC-labelled goat-anti-ratIgG (Biolegend, Clone Poly4054) at a 1:2000 dilution for 20 min at 4° C., washed three times and subsequently subjected to FACS analysis. FACS data was analysed using FlowJo Software and depicted as histograms including secondary antibody only controls.

| Binder | binding result |
| --- | --- |
| B6 | no binding (tested: 0.5 µg/ml) |
| B1 | no binding (tested: 0.5 µg/ml) |
| B2 | no binding (tested: 0.5 µg/ml) |
| B3 | no binding (tested: 0.5 µg/ml) |
| B4 | no binding (tested: 0.5 µg/ml) |
| B5 | no binding (tested: 0.5 µg/ml) |

Target: T2, human PD-L2 (full-length, on cells)
Test: blocking of hPD-1 binding to CHO-K1/hPD-L2 cells
How it was run: (§4)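 Serially diluted antibody (0.25 ng/ml-4 μg/ml) was applied for 30 min at 4° C to 1.5×10⁵ CHO-K1 cells stably expressing human PD-L2, after which 0.5 μg/ml recombinant human PD-1-mouse Fc was added for 30 min at 4° C and detected with fluorochrome-conjugated anti-mouse IgG2a (1:200, 20 min, 4° C). Bound PD-1 was read by flow cytometry against reference wells setting 0% and 100% binding. The IC50 was calculated through non-linear curve fitting in GraphPad Prism.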

| Binder | IC50 [nM] |
| --- | --- |
| B6 | 0.4 |
| B1 | 0.93 |
| B2 | 1.2 |
| B3 | 0.34 |
| B4 | 0.4 |
| B5 | 0.37 |

Target: T2, human PD-L2 (full-length, on cells)
Test: FACS blocking of PD-1 binding to CHO-K1/hPD-L2; high antigen concentration
How it was run: as §4

| Binder | IC50 [nM] |
| --- | --- |
| B6 | 0.343 |
| B1 | 0.58 |
| B2 | 0.733 |
| B3 | 0.198 |
| B4 | 0.464 |
| B5 | 0.127 |

Target: T2, human PD-L2 (full-length, on cells)
Test: FACS, CHO-K1 expressing human PD-L2
How it was run: as §1

| Binder | EC50 [nM] |
| --- | --- |
| B6 | 0.408 |
| B1 | 0.765 |
| B2 | 0.873 |
| B3 | 0.252 |
| B4 | 0.338 |
| B5 | 0.265 |

Target: T5, human PD-L1 (full-length, on cells) (human, UniProt Q9NZQ7 19-290)
T5 construct: whole, on cells; HEK293 cells stably expressing full-length human PD-L1
Test: FACS on HEK293 cells stably expressing full-length human PD-L1
Experimental: as §3

T5 sequence (Q9NZQ7 19-290): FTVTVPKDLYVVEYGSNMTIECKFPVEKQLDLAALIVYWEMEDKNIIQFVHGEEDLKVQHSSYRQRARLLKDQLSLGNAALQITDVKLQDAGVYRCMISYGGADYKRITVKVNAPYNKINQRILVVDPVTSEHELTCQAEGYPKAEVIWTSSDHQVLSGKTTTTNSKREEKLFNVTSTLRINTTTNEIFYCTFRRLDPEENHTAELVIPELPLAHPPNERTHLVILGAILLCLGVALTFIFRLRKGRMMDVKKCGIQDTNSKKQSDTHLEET

| Binder | binding result |
| --- | --- |
| B6 | no binding (tested: 0.5 µg/ml) |
| B1 | no binding (tested: 0.5 µg/ml) |
| B2 | no binding (tested: 0.5 µg/ml) |
| B3 | no binding (tested: 0.5 µg/ml) |
| B4 | no binding (tested: 0.5 µg/ml) |
| B5 | no binding (tested: 0.5 µg/ml) |

Target: T3, recombinant human PD-L2-Fc-biotin
Test: blocking of PD-L2 - PD-1 interaction (cell binding); low antigen concentration
How it was run: as §2

| Binder | IC50 [nM] |
| --- | --- |
| B6 | 0.0252 |
| B1 | 0.0311 |
| B2 | 0.0375 |
| B3 | 0.0103 |
| B4 | 0.0248 |
| B5 | 0.0103 |
